Among the data in patent publication US20230416305A1 (published 2023) are Kd values, retold here.

Bridges are numbered along the chain shown (N, C = ends). Where no end group is shown, it is not given here. [ ]: non-standard residue; d: D form. S5 = C=CCCC[C@](C)(N)C(=O)O

Assay [1] has as its target T1, ANK domain of Notch1 intracellular segment N1ICD (UniProt P46531 1872-2126).
T1 chain: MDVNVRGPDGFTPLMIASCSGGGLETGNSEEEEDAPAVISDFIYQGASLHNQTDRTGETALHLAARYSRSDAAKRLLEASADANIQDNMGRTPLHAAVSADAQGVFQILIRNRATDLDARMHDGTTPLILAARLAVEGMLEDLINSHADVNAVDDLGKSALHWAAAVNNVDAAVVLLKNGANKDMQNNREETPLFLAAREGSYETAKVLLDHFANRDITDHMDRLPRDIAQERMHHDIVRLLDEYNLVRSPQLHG
The experiment in a line: SPR. For orientation: SPR reads the build-up and loss of mass on a sensor chip optically.

The target in assay [2] is T1, ANK domain of Notch1 intracellular …. The experiment in a line: SPR; FIG. 1D.
Assay [3] shares this target. The experiment in a line: SPR; FIG. 1C.
Assay [4] shares this target. Nature of the assay: SPR.
Assay [5] addresses T2, ANK1 (α-helical region of the ANK domain of N1ICD) (UniProt P46531 1927-1956).
T2 chain: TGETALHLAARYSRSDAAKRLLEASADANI
The experiment in a line: SPR.

In a further assay the target is ANK4. Nature of the assay: SPR.
Another assay has as its target ANK6. Nature of the assay: SPR.
The target in the next assay is ANK3. Nature of the assay: SPR.
For another assay, the target named is ANK5. Nature of the assay: SPR.
The target of the next assay is ANK2. The experiment in a line: SPR.

What is called Kd is the constant that tells how readily two partners part at equilibrium. For the molecule YAKRIFYQLLSKAL [mAH2-13], binding in [1] was put at a Kd of 99 nM. Same read-out and setting: for AAKRIFYQLLSKQL [mAH2-1] the value was 96.1 nM. For YAKRIFYQLLSKQL [modified AH2 (mAH2), modified α-helice 2], the equilibrium dissociation constant (Kd) amounted to 45.2 nM in [2] and 60.4 nM in [3]. YAKRIFYQLLSKQA [mAH2-14] showed a Kd in assay [1] of 5980 nM. LLEKKRQY [AH1]: in [4], binding was characterised by a dissociation constant (Kd) of 213 nM.

As to YAKRIFYQLLAKQL [mAH2-11], binding in assay [1] was put at a Kd of 83.9 nM. This lies in the double-digit nanomolar range. The molecule YAKRIFYQLLSAQL [mAH2-12] had a Kd in assay [1] of 78.2 nM. In assay [1], YAKRAFYQLLSKQL [mAH2-5] showed a Kd of 57.5 nM. Same read-out and setting: then YAKRI[S5]YQLLSK[S5]L (staple 6-13) [SAH-mAH2-5 (stapled α-helix-modified α-helix 2-5)], with 0.898 nM; and [S5]AKRIFY[S5]LLSKQL (staple 1-8) [SAH-mAH2-4], with 25.8 nM; and YAKRIAYQLLSKQL [mAH2-6], with 63.6 nM. Regarding YAKRIFYQLLSKEL [AH2 (α-helix 2 of N1DARP)], the Kd worked out at 60.4 nM in assay [2], 4340 nM in assay [5] and 60.4 nM in [4]. Consider YAKAIFYQLLSKQL [mAH2-4], for which the dissociation constant (Kd) in assay [1] amounted to 74.5 nM.

Molecule YAKRIFYQLASKQL [mAH2-10] registered a Kd in assay [1] of 55.5 nM. The Kd values of the last two molecules are within 1.5-fold of each other. Still for that read-out and setting: then Y[S5]KRI[S5]YQLLSKQL (staple 2-6) [SAH-mAH2-2], with 97.7 nM.

Turning to YAKRIFYQLLSKEL [AH2], the dissociation constant (Kd) in the assay with ANK4 turned out to be 66100 nM; with ANK6 it was 64200 nM; with ANK3, 85800 nM; in the assay with ANK5, 42800 nM; with ANK2, 23300 nM.

YAKRIFYALLSKQL [mAH2-8] registered a dissociation constant (Kd) in assay [1] of 87.4 nM. Still for that read-out and setting: for YAKRIFYQALSKQL [mAH2-9] the value was 286 nM; for [S5]AKR[S5]FYQLLSKQL (staple 1-5) [SAH-mAH2-1], 134 nM. As for YAARIFYQLLSKQL [mAH2-3], the dissociation constant (Kd) in [1] turned out to be 51.1 nM.
